Biological target: the molecule itself
Assay: crystal structure

B1: hSac2 domain of human Sac2 (aa 593–760) (domain or fragment, UniProt Q9Y2H2 593-760, looked up)
chain: RSHQELISQLLQSYMKLLLPDDEKFHGGWALIDCDPSLIDATHRDVDVLLLLSNSAYYVAYYDDEVDKVNQYQRLSLENLEKIEIGPEPTLFGKPKFSCMRLHYRYKEASGYFHTLRAVMRNPEEDGKDTLQCIAEMLQITKQAMGSDLPIIEKKLERKSSKPHEDII
modifications: selenomethionine (selenomethionine protein crystals)
  stoichiometry N: 2

From paper PMC4395482 (The Journal of Cell Biology, 2015)
